Laboratory results taken from patent publication US20090203760A1 (UNIVERSITY OF QUEENSLAND, published 2009).
Bridges are numbered along the chain shown (N, C = ends). Where no end group is shown, it is not given here. [ ]: non-standard residue; d: D form. NMeF = CN[C@@H](Cc1ccccc1)C(=O)O; dCha = N[C@H](CC1CCCCC1)C(=O)O

B1: [FWPdChaWr] (peptide)
peptide: cyclo(FWP[dCha]W[dR])
SMILES: N=C(N)NCCC[C@H]1NC(=O)[C@H](Cc2c[nH]c3ccccc23)NC(=O)[C@@H](CC2CCCCC2)NC(=O)[C@@H]2CCCN2C(=O)[C@H](Cc2c[nH]c3ccccc23)NC(=O)[C@H](Cc2ccccc2)NC1=O
B2: MeFKP(dCha)Wr-CONH2 (peptide)
peptide: [NMeF]KP[dCha]W[dR]-NH2
notes: Linear; C-terminal amide of 7; also called ID NO:8
B3: human recombinant C5a (ligand, UniProt P01031 678-751, looked up)
chain: TLQKKIEEIAAKYKHSVVKKCCYDGACVNNDETCEQRAARISLGPRCIKAFTECCVVASQLRANISHKDMQLGR
modifications: tracer form: Hunter/Bolton labelled 125I (New England Nuclear); unlabelled competitor form: none stated
notes: mature
B4: AcKF-[OPdChaWr] (peptide)
peptide: KFXPXWR
modifications: N-acetyl-Lys at 1; ornithine (O) at 3; D-cyclohexylalanine (dCha) at 5; D-Arg at 7; cyclic over residues 3-7 (ornithine side chain to C-terminus)
notes: Cyclic
B5: AcF-[KKdChaWr] (peptide)
peptide: Ac-FKK[dCha]W[dR]
modifications: lactam 2-C
SMILES: CC(=O)N[C@@H](Cc1ccccc1)C(=O)N[C@H]1CCCCNC(=O)[C@@H](CCCNC(=N)N)NC(=O)[C@H](Cc2c[nH]c3ccccc23)NC(=O)[C@@H](CC2CCCCC2)NC(=O)[C@H](CCCCN)NC1=O
B6: MeFKPLWR (peptide)
peptide: [NMeF]KPLWR
notes: Linear; dCha replaced by Leu; also called 10; ID NO:10
B7: MeFKP(dCha)WR (peptide)
peptide: [NMeF]KP[dCha]WR
notes: Linear; 7 with the chirality of Arg changed; also called ID NO:9
B8: AcF-[KMdChaWr] (peptide)
peptide: FKMXWR
modifications: N-acetyl-Phe at 1; D-cyclohexylalanine (dCha) at 4; D-Arg at 6; cyclic over residues 2-6 (Lys side chain to C-terminus)

Assays:
[1] = biological target: human C5a receptor (C5aR) on intact human polymorphonuclear leukocytes (PMNs) (human) (UniProt P21730); assay: cell-based or functional assay
[2] = biological target: human C5a receptor (C5aR) on intact human polymorphonuclear leukocytes (PMNs) (human) (UniProt P21730); assay: 50% inhibition of [125I]C5a binding to intact PMNs
[3] = biological target: human C5a receptor (C5aR) on intact human polymorphonuclear leukocytes (PMNs) (human) (UniProt P21730); assay: 50% inhibition of [125I]C5a binding to intact PMNs; column head prints 'IC50 (M)', the pD2 shows µM
[4] = biological target: T1, human C5a receptor (C5aR) on intact human polymorphonuclear leukocytes (PMNs) (human, UniProt P21730 1-350); assay: cell-based or functional assay
T1 sequence (looked up): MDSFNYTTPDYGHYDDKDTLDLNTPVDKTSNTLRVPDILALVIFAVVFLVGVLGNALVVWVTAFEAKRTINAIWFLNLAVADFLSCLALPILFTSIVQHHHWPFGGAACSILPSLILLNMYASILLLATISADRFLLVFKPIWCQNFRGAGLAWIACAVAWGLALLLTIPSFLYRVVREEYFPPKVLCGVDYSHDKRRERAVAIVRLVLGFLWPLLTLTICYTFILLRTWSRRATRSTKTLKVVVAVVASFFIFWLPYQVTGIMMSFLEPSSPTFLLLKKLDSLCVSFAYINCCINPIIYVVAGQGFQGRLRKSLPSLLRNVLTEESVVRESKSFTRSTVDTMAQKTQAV

[5] = biological target: T1, human C5a receptor (C5aR) on intact …; assay: cell-based or functional assay; remark: listed apart in the source
[6] = biological target: T1, human C5a receptor (C5aR) on intact …; assay: competition with 125I-C5a for binding to intact human PMNs, 4 °C
[7] = biological target: T1, human C5a receptor (C5aR) on intact …; assay: unlabelled C5a competing with 125I-C5a for binding to intact human PMNs, 4 °C
[8] = biological target: T1, human C5a receptor (C5aR) on intact …; assay: 50% inhibition of [125I]C5a binding to intact PMNs; column head prints 'IC50 (M)', the pD2 shows µM

| Molecule | pD2: 50% inhibition in the ability of C5a (100 nM) to cause the release of MPO from PMNs [1] | pD2 [2] | IC50: 50% inhibition in the ability of C5a (100 nM) to cause the release of MPO from PMNs [1] [µM] | other results |
| --- | --- | --- | --- | --- |
| AcF-[KPdChaWr] (peptide) | 7.07 |  |  |  |
| AcF-[OPdChaWr] (peptide) | 7.3 | 4.6 |  | in vitro activity as a C5a antagonist in PMNs, against 17 [1]: 100 fold |
| F-[KPdChaWR] (peptide) | 6.69 | 6.5 | 0.2 | IC50 [2]: 0.3 µM |
| F-[KPdChaWr] (peptide) | 5.55 | 5.09 | 2.8 | IC50 [2]: 8.1 µM |
| F-[OPdChaWR] (peptide) | 7.41 | 7.21 | 0.04 | IC50 [2]: 0.06 µM |
| F-[OPdChaWr] (peptide) | 5.79 | 5.51 | 1.6 | IC50 [2]: 3.1 µM |
| B1 |  | 4.37 |  | IC50 [3]: 43 µM |
| B2 |  |  |  | antagonist activity against 7 (myeloperoxidase release from human PMNs) [4]: ~5 fold; Antagonist Potency IC50: 50% reduction in myeloperoxidase secretion from human PMNs mediated by 100 nM C5a [5]: 0.5 µM; IC50 [6]: 14 µM |
| B3 |  |  |  | IC50 [7]: 0.0008 µM |
| B4 |  |  |  | IC50 [8]: 11 µM |
| B5 | 4.88 | 3.94 | 13 | IC50 [3]: 116 µM |
| B6 |  |  |  | Antagonist Potency IC50: 50% reduction in myeloperoxidase secretion from human PMNs mediated by 100 nM C5a [5]: > 1000 µM; IC50 [6]: 144 µM |
| B7 |  |  |  | IC50 [6]: 11 µM |
| B8 |  | 4.81 |  | IC50 [3]: 15 µM |
